Assay results as given in PMC4555227, “GABPα Binding to Overlapping ETS and CRE DNA Motifs Is Enhanced by CREB1: Custom DNA Microarrays”.
Residue numbers refer to the chain shown, from its start.

T1: GABPα-GST (ETS domain);CREB1 B-ZIP domain (mouse?;mouse, UniProt Q00422;Q01147 320-400;269-327, |)
T1 sequence 1: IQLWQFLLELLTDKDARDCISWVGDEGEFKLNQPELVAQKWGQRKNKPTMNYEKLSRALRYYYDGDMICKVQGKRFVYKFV
T1 sequence 2: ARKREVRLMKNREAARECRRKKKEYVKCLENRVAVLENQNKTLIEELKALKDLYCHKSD

T2: GABPα-GST (ETS domain) (UniProt Q00422 320-400)
T2 sequence: T1 sequence 1

B1: CC SNP CCGGACGT (dsDNA)
DNA 1: GTCCTCAAGACCGGACGTGACGTCACGACTCAGGTGGGACACACTTTAACACATGGAGAG
DNA 2: CTCTCCATGTGTTAAAGTGTGTCCCACCTGAGTCGTGACGTCACGTCCGGTCTTGAGGAC
B2: CC SNP TCGGAAGT (dsDNA)
DNA 1: B1 DNA 1 with C11T, C16A
DNA 2: B1 DNA 2 with G45T, G50A
B3: CC SNP CCGGAACT (dsDNA)
DNA 1: B1 DNA 1 with C16A, G17C
DNA 2: B1 DNA 2 with C44G, G45T
B4: CC SNP CCGGAAA(T) (dsDNA)
DNA 1: B1 DNA 1 with C16A, G17A
DNA 2: B1 DNA 2 with C44T, G45T
B5: CC SNP CGGGAAGT (dsDNA)
DNA 1: B1 DNA 1 with C12G, C16A
DNA 2: B1 DNA 2 with G45T, G49C
B6: ETS-CRE GC motif probe (dsDNA)
DNA 1: B1 DNA 1 with C11G, C16A
DNA 2: B1 DNA 2 with G45T, G50C
B7: GC SNP GCGGAACT (dsDNA)
DNA 1: B1 DNA 1 with C11G, C16A, G17C
DNA 2: B1 DNA 2 with C44G, G45T, G50C
B8: GC SNP GGGGAAGT (dsDNA)
DNA 1: B1 DNA 1 with C11G, C12G, C16A
DNA 2: B1 DNA 2 with G45T, G49C, G50C
B9: GC SNP GCGGAAA(T) (dsDNA)
DNA 1: B1 DNA 1 with C11G, C16A, G17A
DNA 2: B1 DNA 2 with C44T, G45T, G50C

The binders below were run against T1, GABPα-GST (ETS domain);CREB1 B-ZIP … (assay: PBM; 8 ng:8 ng plasmid; PBM as in Badis et al. 2009 (buffer, salt, pH, temperature not stated); IVT proteins from 2.5-100 ng plasmid; Alexa Fluor 647 anti-GST detection). Details: protein: ivt;ivt; tags: GST;none; copies: 1;2; blunt.

Row | Binder | binding signal
1 | B1 | < 20 fold increase by CREB1 (up to; abstract up to 23, most enhanced SNP)
2 | B2 | < 20 fold increase by CREB1 (up to)
3 | B3 | 20 fold increase by CREB1
4 | B4 | 2 fold increase by CREB1
5 | B5 | ~16 fold increase by CREB1

Each binder was assayed against T2, GABPα-GST (ETS domain) (assay: PBM; GABPα-GST alone; PBM as in Badis et al. 2009 (buffer, salt, pH, temperature not stated); IVT proteins from 2.5-100 ng plasmid; Alexa Fluor 647 anti-GST detection). Details: protein: ivt; tags: GST; blunt.

Row | Binder | binding signal [fold weaker than N1]
6 | B6 | 4

Target: T1, GABPα-GST (ETS domain);CREB1 B-ZIP …
Assay: PBM; 8 ng:8 ng plasmid; PBM as in Badis et al. 2009 (buffer, salt, pH, temperature not stated); IVT proteins from 2.5-100 ng plasmid; Alexa Fluor 647 anti-GST detection
Details: protein: ivt;ivt; tags: GST;none; copies: 1;2; blunt
Remark: another data set of the same source

Row | Binder | binding signal [fold increase by CREB1]
7 | B7 | 8
8 | B8 | ~8
9 | B9 | 16
